Laboratory results reported in US20070131547A1.

Molecular target: goxDp-Dzip2 (diaphorase derived from Gluconobacter oxydans, Dzip2 association site fused at the C-terminal side) (Gluconobacter oxydans)
Assay: cell-based or functional assay

His-bmaEDH-Dzip1 (glutamic acid dehydrogenase derived from Burkholderia mallei, His tag, Dzip1 assoc (enzyme)
maximum electric power (glutamic acid fuel cell): 106 µW/cm^2 | shortcircuit current density (glutamic acid fuel cell): 1230 µA/cm^2
